According to US20030166036A1, “Protease and an aminopeptidase associated with development of benign prostatic hyperplasia (BPH)” (priority 2001, published 2003):

Key:
PSA = target: T1, PSA (Homo sapiens, UniProt P07288); assay: Incubation of PSA with lysyl endopeptidase C, cleavage followed by HIC-HPLC and N-terminal sequencing; assay type: biochemical
T1 construct: Unlike the purified mature PSA, pPSA was isolated from a recombinant expression system; from tissue; host or cells: seminal plasma
Protocol: (§1) High-performance hydrophobic interaction chromatography (HIC-HPLC) was performed using a polypropylaspartamide column (PolyLC, distributed by Western Analytical, Temecula, Calif.). The column was 4.6×250 mm in length with a 1000 Å pore size. Samples were applied in 1.5 M ammonium sulfate and eluted with a gradient. Buffers were prepared as follows. Buffer A consisted of 1.2 M sodium sulfate, 25 mM sodium phosphate, and a pH of 6.3, and Buffer B consisted of 50 mM sodium phosphate and 5% v/v 2-propanol. The gradient was 0-30% B for 1 minute, 30-60% B 10 minutes, followed by re-equilibration in Buffer A. High-sensitivity peak detection was obtained with a Varian Model 9070 (Varian Medical Systems, Palo Alto, Calif.) scanning fluorescence detector using an excitation of 232 nm and an emission of 334 nm to detect the tryptophan residues in protein.
N-terminal sequence analysis of the samples was performed on a PE-Applied Biosystems Model 492 amino acid sequencer (PE-Applied Biosystems, Foster City, Calif.). Purified PSA and peaks collected by HIC-HPLC were applied directly to Prosorb cartridges (PE-Applied Biosystems, Foster City, Calif.), washed three times with 0.1 ml 0.01% trifluoroacetic acid, and applied to the sequencer.
Samples of PSA and proPSA were incubated with 0.1% lysyl endopeptidase C (Wako Cemicals USA, Richmond, Va.) in PBS at pH 7 for the times indicated in the figures. The LysC reaction was quenched by the addition of a 10-fold molar excess of aprotinin prior to analysis by HIC-HPLC. The internal cleavage sites of the different HIC-HPLC peaks were determined by N-terminal sequencing.
We also examined the digestion of PSA with LysC in vitro to determine the relative susceptibility of the Lys145 and Lys182 sites.

proPSA = target: T2, proPSA (Homo sapiens, UniProt P07288); assay: Incubation of proPSA with lysyl endopeptidase C, cleavage followed by HIC-HPLC; assay type: biochemical; details: recombinant pPSA (zymogen), 0.1% LysC in PBS pH 7
T2 construct: due to the altered folding in the zymogen form of PSA; made in house
Protocol: as §1
Samples of PSA and proPSA were incubated with 0.1% lysyl endopeptidase C (Wako Cemicals USA, Richmond, Va.) in PBS at pH 7 for the times indicated in the figures. […] The internal cleavage sites of the different HIC-HPLC peaks were determined by N-terminal sequencing.
ProPSA (pPSA) was also incubated with LysC to determine if there was any difference between the cleavage of the Lys145 and Lys182 sites due to the altered folding in the zymogen form of PSA. […] The cleavage of the Lys182 and Lys145 sites in pPSA was also monitored by HIC-HPLC. […]

T1 sequence (P07288 25-261): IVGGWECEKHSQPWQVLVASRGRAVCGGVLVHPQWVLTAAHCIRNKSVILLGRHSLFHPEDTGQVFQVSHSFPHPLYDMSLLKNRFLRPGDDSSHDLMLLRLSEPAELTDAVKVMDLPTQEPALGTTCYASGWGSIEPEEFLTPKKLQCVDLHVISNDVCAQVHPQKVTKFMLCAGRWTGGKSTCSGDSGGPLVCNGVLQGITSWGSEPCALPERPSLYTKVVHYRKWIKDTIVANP
T2 sequence (P07288 18-261 limits assumed): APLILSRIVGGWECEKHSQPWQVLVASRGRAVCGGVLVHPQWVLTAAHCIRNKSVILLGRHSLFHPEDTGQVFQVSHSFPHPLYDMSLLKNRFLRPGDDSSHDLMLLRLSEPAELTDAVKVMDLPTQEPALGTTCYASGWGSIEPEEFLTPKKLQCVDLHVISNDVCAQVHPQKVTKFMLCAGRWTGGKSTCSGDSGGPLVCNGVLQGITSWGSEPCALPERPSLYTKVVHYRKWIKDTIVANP

- Lys182 cleaved more rapidly than Lys145 (PSA; PSA digested with LysC in vitro): approximately 30 times
- PSA cleaved at Lys182 (PSA; after 30 minutes of incubation with LysC): 100%
- rate of cleavage at Lys145 (PSA; mature PSA, 0.1% LysC in PBS pH 7, based on time points greater than 30 minutes): 0.3 % per minute
- rate of cleavage at Lys145 (proPSA): about 0.6 % per minute
B1: LysC: lysyl endopeptidase C (Wako), commercial protease with wide specificity for lysine residues, used to cleave PSA in vitro (protein)
chain: GVSGSCNIDVVCPEGDGRRDIIRAVGAYSKSGTLACTGSLVNNTANDRKMYFLTAHHCGMGTASTAASIVVYWNYQNSTCRAPNTPASGANGDGSMSQTQSGSTVKATYATSDFTLLELNNAANPAFNLFWAGWDRRDQNYPGAIAIHHPNVAEKRISNSTSPTSFVAWGGGAGTTHLNVQWQPSGGVTEPGSSGSPIYSPEKRVLGQLHGGPSSCSATGTNRSDQYGRVFTSWTGGGAAASRLSDWLDPASTGAQFIDGLDSGGGTP
- initial rate of cleavage at Lys182 (PSA; mature PSA purified from seminal plasma, 0.1% LysC in PBS pH 7): 12 % per minute
- initial rate of cleavage of the Lys182 (proPSA): 8 % per minute
